{"source": "paper PMC7811519", "about": "“Unusual DNA-binding properties of the Arabidopsis thaliana WRKY50 transcription factor at target gene promoters”", "binders": {"B1": {"name": "S15mut4 (dsDNA)", "DNA 1": "AGGACTTTTCACCAGTTGGACTTTGGGATTGTTGG", "DNA 2": "CCAACAATCCCAAAGTCCAACTGGTGAAAAGTCCT"}, "B2": {"name": "S15mut13 (dsDNA)", "DNA 1": "AGAGTCCCCCACCAGTTGAGTCCCAAAGCCACCAA", "DNA 2": "TTGGTGGCTTTGGGACTCAACTGGTGGGGGACTCT"}, "B3": {"name": "S15mut2 (dsDNA)", "DNA 1": "AGGACTTTTTCTTCACCAGACTTTGAAGCCACCAA", "DNA 2": "TTGGTGGCTTCAAAGTCTGGTGAAGAAAAAGTCCT"}, "B4": {"name": "S15mut3 (dsDNA)", "DNA 1": "AGGACTTTTCACCAGTTGAGTCCCAAAGCCACCAA", "DNA 2": "TTGGTGGCTTTGGGACTCAACTGGTGAAAAGTCCT"}, "B5": {"name": "S15mut1 (dsDNA)", "DNA 1": "AGAGTCCCCCACCAGTTGGACTTTGAAGCCACCAA", "DNA 2": "TTGGTGGCTTCAAAGTCCAACTGGTGGGGGACTCT"}, "B6": {"name": "S22mut4 (dsDNA)", "DNA 1": "GAGAGAGATAGTTTAGTCCCCCGACTGAAGAACGA", "DNA 2": "TCGTTCTTCAGTCGGGGGACTAAACTATCTCTCTC"}, "B7": {"name": "S22mut2 (dsDNA)", "DNA 1": "GAGAGAGATAGTCCAGTCTTTTGACTGAAGAACGA", "DNA 2": "TCGTTCTTCAGTCAAAAGACTGGACTATCTCTCTC"}, "B8": {"name": "S22mut3 (dsDNA)", "DNA 1": "GAGAGAGATAGTCCAGTCTTCCAGTCGAAGAACGA", "DNA 2": "TCGTTCTTCGACTGGAAGACTGGACTATCTCTCTC"}, "B9": {"name": "S22mut5 (dsDNA)", "DNA 1": "GAGAGAGATAGTTTGACTCCTTGACTGAAGAACGA", "DNA 2": "TCGTTCTTCAGTCAAGGAGTCAAACTATCTCTCTC"}, "B10": {"name": "S15 (CRM-DJ1E) (dsDNA)", "DNA 1": "AGGACTTTTCACCAGTTGGACTTTGAAGCCACCAA", "DNA 2": "TTGGTGGCTTCAAAGTCCAACTGGTGAAAAGTCCT"}, "B11": {"name": "S22 (CRM2-WRKY30) (dsDNA)", "DNA 1": "B9 DNA 1 with C19T, C20T", "DNA 2": "B9 DNA 2 with G16A, G17A"}, "B12": {"name": "S21 (CRM-ATBBE4) (dsDNA)", "DNA 1": "TTTATGTTTGACTTTTGTCATATAG", "DNA 2": "CTATATGACAAAAGTCAAACATAAA"}, "B13": {"name": "S24 (CRM1-WRKY30) (dsDNA)", "DNA 1": "TGGTCAGCATGTTGGACTTTCCAAATTCATTGACC", "DNA 2": "GGTCAATGAATTTGGAAAGTCCAACATGCTGACCA"}, "B14": {"name": "S24mut7 (dsDNA)", "DNA 1": "TAACTGGCATGTTAAGTCCCTTAAATTCACCAGTT", "DNA 2": "AACTGGTGAATTTAAGGGACTTAACATGCCAGTTA"}, "B15": {"name": "S24mut2 (dsDNA)", "DNA 1": "TAACTGGCATGTTGGACTTTCCAAATTCACCAGTT", "DNA 2": "AACTGGTGAATTTGGAAAGTCCAACATGCCAGTTA"}, "B16": {"name": "S24mut9 (dsDNA)", "DNA 1": "TGGTCAGCATGTTGGACTTTCCGGGCCTGTTGACC", "DNA 2": "GGTCAACAGGCCCGGAAAGTCCAACATGCTGACCA"}, "B17": {"name": "S24mut8 (dsDNA)", "DNA 1": "TGGTCAATGCACCGGACTTTCCAAATTCATTGACC", "DNA 2": "GGTCAATGAATTTGGAAAGTCCGGTGCATTGACCA"}, "B18": {"name": "S21mut3 (dsDNA)", "DNA 1": "TTTATGTCCAGTATTTACTGTATAG", "DNA 2": "CTATACAGTAAATACTGGACATAAA"}, "B19": {"name": "S21mut4 (dsDNA)", "DNA 1": "TTTATGTTTAGTCCCTGTCATATAG", "DNA 2": "CTATATGACAGGGACTAAACATAAA"}, "B20": {"name": "S21mut5 (dsDNA)", "DNA 1": "TTTATGTTTGACTCCCGTCATATAG", "DNA 2": "CTATATGACGGGAGTCAAACATAAA"}, "B21": {"name": "S21mut1 (dsDNA)", "DNA 1": "TTTATGTCCAGTATTTGTCATATAG", "DNA 2": "CTATATGACAAATACTGGACATAAA"}, "B22": {"name": "S21mut2 (dsDNA)", "DNA 1": "TTTATGTTTGACTTTTACTGTATAG", "DNA 2": "CTATACAGTAAAAGTCAAACATAAA"}}, "note": "Positions count from the first letter of the chain named.", "data": [{"molecular_target": "T1, WRKY50BD (Arabidopsis thaliana Col-0, UniProt Q8VWQ5 86-173)", "T1 sequence (Q8VWQ5 86-173)": "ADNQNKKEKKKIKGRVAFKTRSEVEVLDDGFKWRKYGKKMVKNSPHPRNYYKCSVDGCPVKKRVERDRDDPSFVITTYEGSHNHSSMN", "assay": "competition EMSA; 100-fold excess vs S15 probe; EMSA with 4-5 ug recombinant protein, 32P probe, 100-fold molar excess competitor; binding buffer, salt, pH and temperature not given (cites Kanofsky et al. 2018)", "conditions": "tags: His tag (pQE-30, Ni purification; tag not spelled out)", "values": [{"binder": "B1", "binding result": "binds"}, {"binder": "B2", "binding result": "no binding"}, {"binder": "B3", "binding result": "binds"}, {"binder": "B4", "binding result": "binds"}, {"binder": "B5", "binding result": "binds"}]}, {"molecular_target": "T1, WRKY50BD", "assay": "competition EMSA; 100-fold excess vs S22 probe; EMSA with 4-5 ug recombinant protein, 32P probe, 100-fold molar excess competitor; binding buffer, salt, pH and temperature not given (cites Kanofsky et al. 2018)", "conditions": "tags: His tag (pQE-30, Ni purification; tag not spelled out)", "values": [{"binder": "B6", "binding result": "no binding"}, {"binder": "B7", "binding result": "no binding"}, {"binder": "B8", "binding result": "no binding"}, {"binder": "B9", "binding result": "no binding"}]}, {"molecular_target": "T1, WRKY50BD", "assay": "EMSA; EMSA with 4-5 ug recombinant protein, 32P probe, 100-fold molar excess competitor; binding buffer, salt, pH and temperature not given (cites Kanofsky et al. 2018)", "conditions": "tags: His tag (pQE-30, Ni purification; tag not spelled out), label: 32P end label (as probe)", "values": [{"binder": "B10", "binding result": "binds"}, {"binder": "B11", "binding result": "binds"}, {"binder": "B12", "binding result": "binds"}, {"binder": "B13", "binding result": "binds"}]}, {"molecular_target": "WRKY50 full length (Arabidopsis thaliana Col-0, UniProt Q8VWQ5 1-173)", "sequence (Q8VWQ5 whole entry)": "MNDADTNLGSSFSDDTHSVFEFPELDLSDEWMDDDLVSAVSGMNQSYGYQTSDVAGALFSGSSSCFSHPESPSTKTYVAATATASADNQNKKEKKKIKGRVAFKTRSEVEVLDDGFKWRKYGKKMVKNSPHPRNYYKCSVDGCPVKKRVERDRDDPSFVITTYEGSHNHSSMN", "assay": "EMSA; EMSA with 4-5 ug recombinant protein, 32P probe, 100-fold molar excess competitor; binding buffer, salt, pH and temperature not given (cites Kanofsky et al. 2018)", "conditions": "label: 32P end label (as probe)", "values": [{"binder": "B12", "binding result": "no binding"}]}, {"molecular_target": "T1, WRKY50BD", "assay": "competition EMSA; 100-fold excess vs S24 probe; EMSA with 4-5 ug recombinant protein, 32P probe, 100-fold molar excess competitor; binding buffer, salt, pH and temperature not given (cites Kanofsky et al. 2018)", "conditions": "tags: His tag (pQE-30, Ni purification; tag not spelled out)", "values": [{"binder": "B14", "binding result": "no binding"}, {"binder": "B15", "binding result": "binds"}, {"binder": "B16", "binding result": "binds"}, {"binder": "B17", "binding result": "binds"}]}, {"molecular_target": "T1, WRKY50BD", "assay": "competition EMSA; 100-fold excess vs S21 probe; EMSA with 4-5 ug recombinant protein, 32P probe, 100-fold molar excess competitor; binding buffer, salt, pH and temperature not given (cites Kanofsky et al. 2018)", "conditions": "tags: His tag (pQE-30, Ni purification; tag not spelled out)", "values": [{"binder": "B18", "binding result": "no binding"}, {"binder": "B19", "binding result": "no binding"}, {"binder": "B20", "binding result": "no binding"}, {"binder": "B21", "binding result": "no binding"}, {"binder": "B22", "binding result": "binds"}]}]}
